Measured values: the nanobody polyreactivity screen of Harvey et al. (2022)

Assay: yeast display, Sf9 membrane polyspecificity reagent, FACS + sequencing; frameworks hold sequencing errors
In short: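 Using colony PCR, genes from sorted yeast display clones were amplified, then sequenced on MiSeq at 2 × 250 and filtered by CDR length. The clones had been stained with 10% biotinylated, detergent-solubilized Sf9 membrane reagent for 1 hour at 4 °C and sorted by FACS into low and high (top ~1%) gates on anti-HA and streptavidin fluorescence. Polyreactivity labels come from the gate of origin.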

Row | Sequence | polyreactivity (PSR sort gate)
1 | QDQLVESGGGLVQAGGSLRLSCAASGFTFAANAMGWSRQAPGKERELVAAISSDSTYADSVKGRFTISRDNAKNTVYLQLNSLKPEDTAVYYCAKDRYIVNSPGLDYWGQGTQVTVSS | low polyreactivity
2 | QDQLVESGGGLVQAGGSLRLSCAASGFTFGRYAMGWYRQAPGKERELVATITRTGSTNYADSVKGRFTISRDNAKNTVDLQMHSLKPEDTAVYYCNAVYSGWRYVKYDYWGPGTQVTVSS | low polyreactivity
3 | QDQLVESGGGLVQAGGSLRLSCAASGFTFGYYAMGWYRQAPGKERELVAAISTRGTSTYYADSVKGRFTISRDNAKNTVYLQMNSLKPEDTAVYYCARDKATDHGYNEFDYWGQGTQVTVSS | low polyreactivity
4 | QDQLVESGGGLVQAGGSLRLSCAASGFTFGYYPMGWSRQAPGKERELVAAITSSGGRTYYADSVKGRFTISRDYGKNTVYLQMNSLKPEDTAVYYCATAYRPDYGYWGQGTQVTRSS | high polyreactivity
5 | QDQLVESGGGLVQAGGSLRLSCAASGFTFNTYAMGWNRQAPGKERELVDAISKSGTRTYYADSVKGRFTISRDNAKNTVYLQMKSLKPEVTAVYYCAAEALYYYRLGWVYLRYDYWGQGTQVTVSS | high polyreactivity
6 | QDQLVESGGGLVQAGGSLRLSCAASGFTFTIYAMGGYRQAPGKEREFVAAISYTDGSTFYVDSVKGRFTISRDYAKNTVYLQMTSLKPEDTAVYYCAKDRPGWVHRRPTGGFDYWGQGTQVTVSS | low polyreactivity
7 | QDQLVESGGGLVQAGGSLRLSCAASGFTFYPYAMGWYRQAPGKERELVAAITYIGSTYYADSVKGRFTISRDNAKNTVYLQMNSLKPEDTAVYYCAAVKVFLGLGYDYWGQGTQVTVSS | low polyreactivity
8 | QDQLVESGGGLVQAGGSLRLSCAASGFTYEKYAMGSYRTAPGKERELVASISWSGGRTRYADSVMGRFTISRDNAKNTVYLQMNSLKPEDTAVYYCAARGAYKSAYNRNEYWGQGTQVTVSS | high polyreactivity
9 | QDQLVESGGGLVQAGGSLRLSCAASGGIFFIYVMGWYRQAPGKERELVAAISGSGGTTYYADSVKGRFTISRDNAKNTVYLQMNSLKPEDTAVFYCNRVSDYTLYYWGQGTQVTVSS | low polyreactivity
10 | QDQLVESGGGLVQAGGSLRLSCAASGGTFKFYAMGWYRQAPGKERELVAAITSGGSTSYADSVKGRFTISRDNAKNTVYLQMNSLKPEDTAVYYCNADFYQRYGVFSSRRYYYWGQGTQVTVSS | high polyreactivity
11 | QDQLVESGGGLVQAGGSLRLSCAASGGTFPEYALGWYRQAPGKERELLAAIRTDGRTYYADSVKGRFTISRDNAKNTVYLQMNSLKPEDTAVYYCAADSRYSRPYTWRKAYDYLGQGTQVTVSS | low polyreactivity
12 | QDQLVESGGGLVQAGGSLRLSCAASGGTFTVYAMGWYRQAPGKERELVATINWSRGSTYYADSVKGRFTISRDNAKNTVYLQMKSLKPEDNAVYYCNAAWQYKSVEYWGQGTQVTVSS | low polyreactivity
13 | QDQLVESGGGLVQAGGSLRLSCAASGIIFARYAMGWSRPAPGKERELVAAITSGGGSTYYADSVKGRFTISRDNAMNTVYLQMYSLKPEDTAVYYCAADYQTIGWGYDYWGQGTQVTVSS | low polyreactivity
14 | QDQLVESGGGLVQAGGSLRLSCAASGIIFKFNVMGWYRQAPGKERELVAAISTGGSTYYADSVKGRFTISRDNAKNTVYLQMNSLKPEDTAVYYCNAVSPLSIWSSRDGWYGYWGQGTQVTVSS | high polyreactivity
15 | QDQLVESGGGLVQAGGSLRLSCAASGIIFYRYAMGWYRQAPGKERELVAAITWSGVSTSYADSVKGRFTISRDNAKNTVYLQMNSLKPEDTAVYYCNKDPGTLYGDMDSWGQGTQVTVSS | low polyreactivity
16 | QDQLVESGGGLVQAGGSLRLSCAASGIIIVAYAMGWYRQAPGKERELVAAITVSGARTYYADSVKGRFTISRDNAKITVYFQMNSLKPEDTAVYYCAARYAGGGVLGHGYWGQGTQVTVSS | high polyreactivity
17 | QDQLVESGGGLVQAGGSLRLSCAASGIILPRYAMGWYRQAPGKERELVAAISRGGGTYYADSVKGRFTISRDNAKNSVYLQMNSLKPEDTAFYYCDAAYVFVGSSHYYWGQGTQVTVSS | high polyreactivity
18 | QDQLVESGGGLVQAGGSLRLSCAASGINFKYYAMGWYRQAPGKERELVAAISRSGSSTYYADSVKGRFTISRDNAKNTVYLQMNSLIPEDTSVYYCADQPYDSNYGNSGYWGQGTQVTVSS | high polyreactivity
19 | QDQLVESGGGLVQAGGSLRLSCAASGITFPKYAMGWYRQAPGKERELVAAITKSGGSTYYADSVKGRFTISRDNAKNTVYLQMNSLKPEVTAVYYCAARPRYGEYDYWGQGTQVTVSS | high polyreactivity
20 | QDQLVESGGGLVQAGGSLRLSCAASGITLFYYAMGWYRQAPGKERELVAVISASGGSTYYADSVKGRFTISRDNAKNTVYLQMNSLKQEDTAVYYCAAVAYWRSSSWYYYWGLGTQVTVSS | high polyreactivity
21 | QDQLVESGGGLVQAGGSLRLSCAASGLIFGGYDMGWYRQAPGKERELVAAISCDDGDTYYADSVKGRFTISRDNAKNTVYLQMNSLKPEDTAVYYCAAESLSGAHGYWGQGTQVTVSS | low polyreactivity
22 | QDQLVESGGGLVQAGGSLRLSCAASGLIFRHYAMGWSRQAPGKERELVAAITWSGGSTYYADSVKGRFTISRDNAKNTVYLQMNSLKAEDTAVYYCAAEGTGYSVGWQYGYWGQGTQVTVSS | low polyreactivity

Row | Sequence | polyreactivity (PSR sort gate)
23 | QDQLVESGGGLVQAGGSLRLSCAASGLIFVGYALGGYRQAPGKERELVAAITSGGSTKYADSVKGRFTSSRDNAKNTVYLQMNSLKPEDTAVYYCAASGWRNWWSARNYYWGQGTQVTVSS | high polyreactivity
24 | QDQLVESGGGLVQAGGSLRLSCAASGLISSINAMGWYRQAPGKERELVAAISFSGGRTYYADSVKGRFTISRDNAKNTVYLQMNSLKPEDTAVYYFNAVSGGHRSRYGYWGQGTLVTVSS | high polyreactivity
25 | QDQLVESGGGLVQAGGSLRLSCAASGLTFFYYAMGWSRQSPGKERELVAAISRGGSTYYADSVKGRFTISRDHAKYTVYLQMKSLNPEDTAVYYCAAKTYQKEIVRPMYYWGQGTQVTVSS | high polyreactivity
26 | QDQLVESGGGLVQAGGSLRLSCAASGLTFGRYAMGWYRQAPGKERELVAAITWNGDGTYYADSVKGRFTISRDNAKNTVYLQMNSQKPEDSAVFYCAADYYTYLYGRYNYWGQGTQVTVSS | low polyreactivity
27 | QDQLVESGGGLVQAGGSLRLSCAASGLTFGYYAMGWYRQAPGKERELVAAINSGGSTYYADSVKGRFTISRDNAKNTVYFQMNSLKPEDTAVYYCNATLDLYDSVSYTGPGMDYWGQGTQVTVSS | low polyreactivity
28 | QDQLVESGGGLVQAGGSLRLSCAASGNIFPSYVMGWYRQAPGKERELVAAITWKGGSTYYADSVKGRFTISRDNAKNTVYLQMNSLKPEDTAVYYCNAVGNLYSRDDYWGQGTQVTVSS | low polyreactivity
29 | QDQLVESGGGLVQAGGSLRLSCAASGNIFVTNAMGWYRQAPGKERELVAAITYSGGTTYYADSVKGRFTISRDNAKNTVYLQMNSLKPEDTAVYYCAADFATWTYYPYRLDEFDYWGQGTQVTVSS | low polyreactivity
30 | QDQLVESGGGLVQAGGSLRLSCAASGRIFDTNAMGRYRQAPGKERELVATNTRSAGRTYYADSVKGRFTISRDNAKIKVFLQMNILKPEDTAVYFCNADWGPTYEIYDSWGQGTQVTVSS | low polyreactivity
31 | QDQLVESGGGLVQAGGSLRLSCAASGRIFGWYAMGWYRQAPGKERELVAAISNDGSTNYADSVKGRFTISRDNAKNTVYLQMNSLKPEDTAVYYSAARFYRSSYGWYGYWGQGTQVTVSS | high polyreactivity
32 | QDQLVESGGGLVQAGGSLRLSCAASGRIFIVYAMGWYRQAPGKERELDAAISRNGGRTYYADSVKGRFTISRDNAKNSVDLQMNSLKPEDTSVYYCNSVALYPYTTYDYWGQGSQVTVSS | high polyreactivity
33 | QDQLVESGGGLVQAGGSLRLSCAASGRIFRPNTMGWYRQAPGKERELVASISLSAGSTYYADSVKGRFTISRDNAKNTVYLQMNSLKPEDTAVYYCNATYLSWYRYKYNYWGQGTQVTVSS | low polyreactivity
34 | QDQLVESGGGLVQAGGSLRLSCAASGRIFTGNAMGWYRQAPGKERELVAAITKSGGSTYYADSVKGRFTISRDNAKNTVYLQMNSLKPEDTAVYYCAATRYLHYVYKYGYWGQGTQVTVSS | high polyreactivity
35 | QDQLVESGGGLVQAGGSLRLSCAASGRIFVYYVMGWYRQAPGKERELVAAITYSGGSTYYADSVKVRFTISRDNAKNTVYLQMNSLKPEDTAVYACNKVDAFGIVRLYYWGQGTQVTVSS | low polyreactivity
36 | QDQLVESGGGLVQAGGSLRLSCAASGRTFGYNAMGWYRQAPGKERELVAANNWSGASTYYADSVKGRFTISRDNAKNTVYLQMNSLKPDDSAVYYCAADYSYIYGFDYWGQGTQVTVSS | low polyreactivity
37 | QDQLVESGGGLVQAGGSLRLSCAASGRTFGYYVMGWYRQAPGKERELVAAISRSGGTTYYADSVKGRFTISRDNAKNTVYLQMNSLKPEDTAVYYCATDSRTGYDYWGQGTQVTVSS | high polyreactivity
38 | QDQLVESGGGLVQAGGSLRLSCAASGRTFIRNAMGWYRQAPGKERELVAAISRSGGRTYYADSVKGRFTISRDNAKNTVYLQMNSLKPEDTAVYYCAAGSYQRYAFDYWGQGTQVTVSS | high polyreactivity
39 | QDQLVESGGGLVQAGGSLRLSCAASGRTFQYNAMGWDRQARGSERELVAAISSSGGSTYYADSVKGRFTISRDNAKNTVYLQMNSLKPEDTAVYYCNAYSQSWNFYGDGDYWGQGTQVTVSS | low polyreactivity
40 | QDQLVESGGGLVQAGGSLRLSCAASGRTFRYNTMGWYRQAPGKERELVASISWGGGSTYYADSVKGRFTISRDTAKNTVYLQMNSLKPEDTAVYYCAARRWGQFRFEYWGQGTQVTVSS | high polyreactivity
41 | QDQLVESGGGLVQAGGSLRLSCAASGRTFSYNAMGWYRQAPRKERELVAAISYDGGRTYYADSVKGRFTISRDNAKNTFYLQMNSLKPEDTAVYYCAAYPYRGPHTWTIGDYWGQGTQVTVSS | low polyreactivity
42 | QDQLVESGGGLVQAGGSLRLSCAASGRTFWAYAMGWYRQAPGKEREVVASIRSSGTSTYYADSVMGRFTISRDNAKNSVYLQMNSLKPEDTAVYYCAATSGYARYYHREYWGQGTQVTVSS | high polyreactivity
43 | QDQLVESGGGLVQAGGSLRLSCAASGRTFYYAMGWYRQAPGKERYADSVKGRFTISRDNAKNTVYLQMNSLKPEDTAVYYCAAKVPEPPSLDESDYWGQGTQVTVSS | low polyreactivity
